Source: article PMC2936243 (Journal of neurochemistry, 2010)

Target: native rat α7 nicotinic acetylcholine receptor (hippocampus) (rat (endogenous in hippocampus)) (UniProt Q05941)
Assay: radioligand binding

## Alexa Fluor 546-ArIB[V11L;V16A] (peptide)
  IC50: 7.9 nM
  Ki: 1.8 nM
